{
  "source": "patent US20020049303A1",
  "biological_target": "recombinant memapsin 2 (M2pd), auto-activated from pro-M2pd at pH 4.0 (human) (UniProt P56817)",
  "sequence (P56817 25-419 limits assumed)": "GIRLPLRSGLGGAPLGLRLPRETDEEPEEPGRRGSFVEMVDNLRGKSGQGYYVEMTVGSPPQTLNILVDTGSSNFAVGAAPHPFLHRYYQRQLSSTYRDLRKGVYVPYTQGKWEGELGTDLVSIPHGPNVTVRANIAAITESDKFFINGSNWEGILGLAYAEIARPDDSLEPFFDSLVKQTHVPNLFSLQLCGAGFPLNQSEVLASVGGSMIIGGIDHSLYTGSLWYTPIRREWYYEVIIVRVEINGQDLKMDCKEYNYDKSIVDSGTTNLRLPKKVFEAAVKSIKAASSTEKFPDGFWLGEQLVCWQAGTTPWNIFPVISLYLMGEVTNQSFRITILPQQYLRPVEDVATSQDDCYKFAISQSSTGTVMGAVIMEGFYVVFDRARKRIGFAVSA",
  "assay": "cell-based or functional assay",
  "data": [
    {"substance": "Pepstatin A (peptide)", "values": [
      {"measurement": "inhibition of M2pd activity (IC50)", "value": 300, "unit": "µM"}
    ]}
  ]
}
